Assay results from patent publication US20250154198A1, “PEPTIDE INHIBITORS OF INTERLEUKIN-23 RECEPTOR” (Zealand Pharma A/S, priority 2021, published 2025).
*1 amine or outer side, *2 acyl side, *3 side chain or, on linkers, in order; H or OH if unused. Bridges are numbered along the chain shown (N, C = ends). Primed or numbered codes have the meaning given here. Where no end group is shown, it is not given here. [ ]: non-standard residue; d: D form. 4‑Aminomethyl‑phenylacetyl = 4-aminomethyl-phenylacetyl unit, its amine closes the lactam, O=C(Cc1ccc(CN[*:1])cc1)[*:2]; 1,3‑dibromopropan‑2‑one = linker (CAS 816-39-7) joining two Cys as 1,3-dithio-propan-2-one bridge -SCH2C(=O)CH2S-; 1,3‑dibromopropan‑2‑one(3) = linker giving 1,3-dithio-propan-2-one bridge -SCH2C(=O)CH2S- between Cys; 4‑Aminomethyl‑phenylacetyl″ = N-terminal cap residue, O=C(Cc1ccc(CN[*:1])cc1)[*:2]; Pipz(1-CH2CO,4-CH2CH2NH) = O=C(CN1CCN(CCN[*:1])CC1)[*:2]; Trp(6-F) = N[C@@H](Cc1c[nH]c2cc(F)ccc12)C(=O)O; Trp(7-Me) = Cc1cccc2c(C[C@H](N)C(=O)O)c[nH]c12; 2Nal = N[C@@H](Cc1ccc2ccccc2c1)C(=O)O; AEF = NCCOc1ccc(C[C@H](N)C(=O)O)cc1; 3Pal = N[C@@H](Cc1cccnc1)C(=O)O; 4Pal = N[C@@H](Cc1ccncc1)C(=O)O; αMeL = CC(C)C[C@](C)(N)C(=O)O; CH2COCH2 = O=C(C[*:1])C[*:2]; αMeV = CC(C)[C@](C)(N)C(=O)O; 3Amb = NCc1cccc(C(=O)O)c1; dDab = NCC[C@@H](N)C(=O)O; Orn = NCCC[C@H](N)C(=O)O; Dab = NCC[C@H](N)C(=O)O; Ahx = NCCCCCC(=O)O; βAla = NCCC(=O)O

molecular target: T1, human IL-23R endogenously expressed on DB cells (CRL-2289) (human, UniProt Q5VWK5 24-629); assay: cell-based or functional assay
T1 sequence (looked up): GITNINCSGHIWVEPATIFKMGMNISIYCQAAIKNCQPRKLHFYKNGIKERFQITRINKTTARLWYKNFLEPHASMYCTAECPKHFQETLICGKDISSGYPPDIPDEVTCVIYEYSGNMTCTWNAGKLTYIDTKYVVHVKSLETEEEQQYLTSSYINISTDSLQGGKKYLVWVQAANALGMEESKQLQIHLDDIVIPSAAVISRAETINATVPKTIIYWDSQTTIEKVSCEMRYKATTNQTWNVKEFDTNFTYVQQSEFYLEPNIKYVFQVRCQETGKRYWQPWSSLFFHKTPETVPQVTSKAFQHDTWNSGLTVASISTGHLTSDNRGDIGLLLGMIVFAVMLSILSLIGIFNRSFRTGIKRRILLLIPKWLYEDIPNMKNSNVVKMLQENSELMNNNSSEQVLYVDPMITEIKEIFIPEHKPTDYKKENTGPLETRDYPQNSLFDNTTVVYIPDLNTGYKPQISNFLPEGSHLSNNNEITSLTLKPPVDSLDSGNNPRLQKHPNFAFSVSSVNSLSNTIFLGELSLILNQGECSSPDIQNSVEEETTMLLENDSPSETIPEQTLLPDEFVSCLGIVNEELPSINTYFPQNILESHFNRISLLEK

Row | Binder | IC50 (pSTAT3)
1 | [Ahx]SCWQC[AEF][2Nal][αMeL]E[dR]-NH2 (lactam (positions not given here); linker 3-6 via CH2COCH2; not fully specified (bridges); printed as [6-Aminohexanoyl](1c)*SC(2a)WQC(2a)[Y(2-aminoethoxy)][2-Nal][2-Me-Leu]E(1c)[{d}R]-[NH2]) [Compound 87] | 8.89 nM
2 | [Pipz(1-CH2CO,4-CH2CH2NH)]SCWQC[AEF][2Nal][αMeL]E[dR]-NH2 (lactam (positions not given here); linker 3-6 via CH2COCH2; not fully specified (bridges); printed as [(4-(2-Aminoethyl)-piperazine-1-yl)-acetyl](1c)*SC(2a)WQC(2a)[Y(2-aminoethoxy)][2-Nal][2-Me-Leu]E(1c)[{d}R]-[NH2]) [Compound 90] | 15.8 nM
3 | [4‑Aminomethyl‑phenylacetyl]SCWQC[AEF][2Nal][αMeL]E[dDab]((2-(trimethyl-2-aminoethoxy)ethoxy)propyl)-NH2 (lactam N-10; linker 3-6 via 1,3‑dibromopropan‑2‑one(3)) [Compound 109] | 21.5 nM
4 | [4‑Aminomethyl‑phenylacetyl″]SCWQC[AEF][2Nal][αMeL]E[dH]-NH2 (lactam N-10; linker 3-6 via 1,3‑dibromopropan‑2‑one(3)) [Compound 117] | 11.3 nM
5 | Ac-KTCWQC[AEF][2Nal][αMeL]E[dR]-NH2 (lactam 1-10; linker 3-6 via CH2COCH2; SMILES CC(=O)N[C@H]1CCCCNC(=O)CC[C@@H](C(=O)N[C@H](CCCNC(=N)N)C(N)=O)NC(=O)[C@](C)(CC(C)C)NC(=O)[C@H](Cc2ccc3ccccc3c2)NC(=O)[C@H](Cc2ccc(OCCN)cc2)NC(=O)[C@@H]2CSCC(=O)CSC[C@H](NC(=O)[C@H]([C@@H](C)O)NC1=O)C(=O)N[C@@H](Cc1c[nH]c3ccccc13)C(=O)N[C@@H](CCC(N)=O)C(=O)N2) [Compound 85] | 8.54 nM
6 | [3Amb]SEWQ[Dab][AEF][2Nal][αMeL]ER-NH2 (lactam (positions not given here); lactam 3-6; not fully specified (bridges)) [Compound 67] | 35.3 nM
7 | Ac-KSCWQC[AEF][2Nal][αMeL]E[dR]-NH2 (lactam 1-10; linker 3-6 via CH2COCH2; SMILES CC(=O)N[C@H]1CCCCNC(=O)CC[C@@H](C(=O)N[C@H](CCCNC(=N)N)C(N)=O)NC(=O)[C@](C)(CC(C)C)NC(=O)[C@H](Cc2ccc3ccccc3c2)NC(=O)[C@H](Cc2ccc(OCCN)cc2)NC(=O)[C@@H]2CSCC(=O)CSC[C@H](NC(=O)[C@H](CO)NC1=O)C(=O)N[C@@H](Cc1c[nH]c3ccccc13)C(=O)N[C@@H](CCC(N)=O)C(=O)N2) [Compound 84] | 12.5 nM
8 | [4‑Aminomethyl‑phenylacetyl]SCWQC[AEF][2Nal][αMeL]E[dR]-OH (lactam N-10; linker 3-6 via 1,3‑dibromopropan‑2‑one(3)) [Compound 108] | 10.6 nM
9 | [3Amb]SC[Trp(7-Me)]QC[AEF][2Nal][αMeL]ER-NH2 (lactam (positions not given here); linker 3-6 via CH2COCH2; not fully specified (bridges)) [Compound 70] | 8.43 nM
10 | [3Amb]SEWQ[Orn][AEF][2Nal][αMeL]ER-NH2 (lactam (positions not given here); lactam 3-6; not fully specified (bridges); printed as [(3-Aminomethyl)benzoyl](1c)*SE(2c)WQ[Orn](2c)[Y(2-aminoethoxy)][2-Nal][2-Me-Leu]E(1c)R-[NH2]) [Compound 69] | 41.1 nM
11 | [3Amb]S[Orn]WQE[AEF][2Nal][αMeL]ER-NH2 (lactam (positions not given here); lactam 3-6; not fully specified (bridges); printed as [(3-Aminomethyl)benzoyl](1c)*S[Orn](2c)WQE(2c)[Y(2-aminoethoxy)][2-Nal][2-Me-Leu]E(1c)R-[NH2]) [Compound 68] | 63.9 nM
12 | [3Amb]SCWQC[AEF][2Nal][αMeL]ER[4Pal]-NH2 (lactam (positions not given here); linker 3-6 via CH2COCH2; not fully specified (bridges); printed as [(3-Aminomethyl)benzoyl](1c)*SC(2a)WQC(2a)[Y(2-aminoethoxy)][2-Nal][2-Me-Leu]E(1c)R[3-(4-Pyridyl)-Ala]-[NH2]) [Compound 79] | 21.3 nM
13 | [4‑Aminomethyl‑phenylacetyl]SCWQC[AEF][2Nal][αMeL]E[dQ]-NH2 (lactam N-10; linker 3-6 via 1,3‑dibromopropan‑2‑one(3)) [Compound 115] | 18.9 nM
14 | [4‑Aminomethyl‑phenylacetyl]SCWQC[AEF][2Nal][αMeL]E[βAla]-NH2 (lactam N-10; linker 3-6 via 1,3‑dibromopropan‑2‑one(3)) [Compound 119] | 16.7 nM
15 | [4‑Aminomethyl‑phenylacetyl]VEWQ[Dab][AEF][2Nal][αMeL]E[Dab]-NH2 (lactam N-10, 3-6; SMILES CC(C)C[C@]1(C)NC(=O)[C@H](Cc2ccc3ccccc3c2)NC(=O)[C@H](Cc2ccc(OCCN)cc2)NC(=O)[C@@H]2CCNC(=O)CC[C@H](NC(=O)[C@H](C(C)C)NC(=O)Cc3ccc(cc3)CNC(=O)CC[C@@H](C(=O)N[C@@H](CCN)C(N)=O)NC1=O)C(=O)N[C@@H](Cc1c[nH]c3ccccc13)C(=O)N[C@@H](CCC(N)=O)C(=O)N2) [Compound 126] | 28 nM
16 | [4‑Aminomethyl‑phenylacetyl]SEWQ[Dab][AEF][2Nal][αMeV]E[Dab]-NH2 (lactam N-10, 3-6; SMILES CC(C)[C@]1(C)NC(=O)[C@H](Cc2ccc3ccccc3c2)NC(=O)[C@H](Cc2ccc(OCCN)cc2)NC(=O)[C@@H]2CCNC(=O)CC[C@H](NC(=O)[C@H](CO)NC(=O)Cc3ccc(cc3)CNC(=O)CC[C@@H](C(=O)N[C@@H](CCN)C(N)=O)NC1=O)C(=O)N[C@@H](Cc1c[nH]c3ccccc13)C(=O)N[C@@H](CCC(N)=O)C(=O)N2) [Compound 136] | 8.8 nM
17 | cyclo(DSCWQCWWLR) (linker 3-6 via 1,3‑dibromopropan‑2‑one) [Compound 6] | > 1 µM
18 | [4‑Aminomethyl‑phenylacetyl]SCWQC[AEF][Trp(6-F)][αMeL]E[Dab][3Pal]-NH2 (lactam N-10; linker 3-6 via 1,3‑dibromopropan‑2‑one(3)) [Compound 121] | 0.367 nM
19 | [4‑Aminomethyl‑phenylacetyl″]S[Dab]WQE[AEF][2Nal][αMeL]E[Dab][3Pal]-NH2 (lactam N-10, 3-6; SMILES CC(C)C[C@]1(C)NC(=O)[C@H](Cc2ccc3ccccc3c2)NC(=O)[C@H](Cc2ccc(OCCN)cc2)NC(=O)[C@@H]2CCC(=O)NCC[C@H](NC(=O)[C@H](CO)NC(=O)Cc3ccc(cc3)CNC(=O)CC[C@@H](C(=O)N[C@@H](CCN)C(=O)N[C@@H](Cc3cccnc3)C(N)=O)NC1=O)C(=O)N[C@@H](Cc1c[nH]c3ccccc13)C(=O)N[C@@H](CCC(N)=O)C(=O)N2) [Compound 123] | 25.3 pM
20 | [4‑Aminomethyl‑phenylacetyl]SEWQ[Orn][AEF][2Nal][αMeL]E[Dab][3Pal]-NH2 (lactam N-10, 3-6; SMILES CC(C)C[C@]1(C)NC(=O)[C@H](Cc2ccc3ccccc3c2)NC(=O)[C@H](Cc2ccc(OCCN)cc2)NC(=O)[C@@H]2CCCNC(=O)CC[C@H](NC(=O)[C@H](CO)NC(=O)Cc3ccc(cc3)CNC(=O)CC[C@@H](C(=O)N[C@@H](CCN)C(=O)N[C@@H](Cc3cccnc3)C(N)=O)NC1=O)C(=O)N[C@@H](Cc1c[nH]c3ccccc13)C(=O)N[C@@H](CCC(N)=O)C(=O)N2) [Compound 124] | 0.117 nM
